Measured values: US20030118557A1, “Axon repair” (priority 2001, published 2003)

B1: GAP-43: growth-associated growth cone protein; chicken GAP-43 transgene expressed in mouse neurons under Thy-1 promoter (protein, UniProt P35001 1-246, looked up)
Neuromodulin: MLCCMRRTKQVEKNEDGDQKIEQDGIKPEDKAHKAATKIQASFRGHITRKKLKGEKKADAPASESEAADKKDEGPAGGAAENKESEASAATEASAADSAQLDEGSKDSSVPAEEKKGNGAADTGSEQPAPQAATPAASSEEKPAAAAETESATKASTDNSPSLKADEAQDKEEPKQADVPAADTTATTTPAAEDATAKATAQPQMETVESSQTEEKTDAVEETKPTESAQQEEVKEEESKADQENA
modifications: transgene in mouse neurons
notes: growth-associated growth cone protein; chicken GAP-43 transgene expressed in mouse neurons under Thy-1 promoter
B2: CAP-23: growth cone protein; chicken CAP-23 transgene expressed in mouse neurons under Thy-1 promoter (protein, UniProt P23614 2-244, looked up)
Brain acid soluble protein 1 …: GGKLSKKKKGYSVNDEKAKDKDKKAEGAATEEEETPKEAEDAQQTTETTEVKENNKEEKVEKDAQVSANKTEEKEGEKEKTVTQEEAQKAEPEKSEAVVDAKVEPQKNNEQAPKQEEPAAASAPAASSEAPKTSEPSSDAKASQPSEATAPSKADDKSKEEGEAKKTEAPATPAAQETKSEVAPASDSKPSSSEAAPSSKETVAATAAPSSTAKASDPSAPPEEAKPSEAPATNSDQTIAVQD
modifications: transgene in mouse neurons
notes: growth cone protein; chicken CAP-23 transgene expressed in mouse neurons under Thy-1 promoter

Test system: dorsal root ganglion (DRG) neurons
Assay: short-term in vitro axon outgrowth assay with adult DRG neurons from transgenic mice
Format: cell-based
Conditions: for propensity / number of adult DRG neurons that extended axons: acute outgrowth assay, naive neurons; for extension of long (>300 μm) axons: naive adult DRG neurons from transgenic mice, short-term culture
Description: For the in vitro analysis, dorsal root ganglion (DRG) neurons from adult mice (>8 weeks) were dissociated essentially as described (Smith et al, J. Neurosci. 17:646-658 (1997)), and centrifuged at 200×g for 10 minutes through a cushion of 10% Ficoll in F14 culture medium to remove myelinated axons, cellular debris and non-neuronal cells. Neurons were resuspended in serum-free F14 medium containing N1 supplements, and plated on polylysine/laminin coated glass coverslips as described (Smith et al, J. Neurosci. 17:646-658 (1997)). Cells from 12-14 ganglia were plated in 12 wells of a standard 24-well plate. After 18-24 hours, cultures were fixed in 4% paraformaldehyde for 30 minutes at room temperature, washed and stained with antibodies to detect neurons expressing chicken CAP-23 (monoclonal antibody 15C1) and chicken GAP-43 (rabbit polyclonal antibody) (Caroni et al, J. Cell Biol. 136:679-692 (1997), Aigner et al, Cell 83:269-278 (1995)). To visualize all neuronal processes, cultures were stained with antibodies to β III tubulin (MAB 1637; Chemicon, Temecula, Calif.). Cells were viewed with a CCD camera and analyzed with IPLab 3.2 for the Macintosh (Scanalytics, Inc., Fairfax, Va.). Only neurons that stained strongly for the appropriate transgene(s) were analyzed. In control cultures, cells that stained strongly for the neuron-specific β III tubulin were analyzed. Cells with processes greater than 2 cell body diameters were scored. The length of the longest process for each cell, and the number of branches formed along that process, were then measured.
To identify genes responsible for the onset of axon regeneration, a short-term in vitro assay was used that monitors a transcription-dependent switch in axon extension induced in DRG neurons by axon injury (Smith et al, J. Neurosci. 17:646-658 (1997)). Neurons are removed from adult animals and cultured for 18-24 hours (Smith et al, J. Neurosci. 17:646-658 (1997)). Because the neurons are axotomized during this removal, they will eventually respond by inducing the full complement of growth-associated genes (Smith et al, J. Neurosci. 17:646-658 (1997)). Over the first 24 hours in culture, however, axon outgrowth depends only on genes that were already expressed in the neurons at the time of their removal from the animal (Smith et al, J. Neurosci. 17:646-658 (1997)). Neurons isolated from adult mice with no prior manipulation (naive neurons) supported a limited amount of outgrowth (Smith et al, J. Neurosci. 17:646-658 (1997)) and FIG. 1), characterized by the emergence of relatively short and highly branched axons (FIGS. 2 and 3). In contrast, neurons that had responded to a peripheral nerve lesion several days before removal were much more likely to extend axons (FIG. 1), and those axons were long and sparsely branched (FIGS. 2 and 3). This “elongating” growth resembles the extension required for nerve regeneration in vivo, and reflects the expression of genes induced by peripheral nerve injury (Smith et al, J. Neurosci. 17:646-658 (1997)).

Molecule	propensity / number of adult DRG neurons that extended axons	extension of long (>300 μm) axons	modal length of axons (naive adult DRG neurons, persistent transgene expression, 18-24 hours in culture)
B1	increased the propensity	Only a small fraction	100-150 μm
B2	increased the number	did not elicit extension of long axons	–
